Data from patent US20160103133.

Biological target: recombinant RhoA (UniProt P61586)
Sequence (P61586 whole entry): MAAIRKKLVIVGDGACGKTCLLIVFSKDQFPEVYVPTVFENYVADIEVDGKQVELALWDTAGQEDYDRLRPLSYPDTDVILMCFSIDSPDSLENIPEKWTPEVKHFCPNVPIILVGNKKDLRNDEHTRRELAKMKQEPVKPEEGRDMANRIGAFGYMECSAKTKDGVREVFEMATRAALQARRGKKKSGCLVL

How did the “RhoGEF activity (mant-GTP exchange assay)” value turn out when T7-tagged TRIO(G2699V) was run?
Its value is “the TRIO(G2699V) mutant was more capable of activating Rho than TRIO(WT)”.
